B1: F-box/WD repeat-containing protein 11 (Homo sapiens), Q9UKB1 (parent)
chain: MEPDSVIEDKTIELMCSVPRSLWLGCANLVESMCALSCLQSMPSVRCLQISNGTSSVIVSRKRPSEGNYQKEKDLCIKYFDQWSESDQVEFVEHLISRMCHYQHGHINSYLKPMLQRDFITALPEQGLDHIAENILSYLDARSLCAAELVCKEWQRVISEGMLWKKLIERMVRTDPLWKGLSERRGWDQYLFKNRPTDGPPNSFYRSLYPKIIQDIETIESNWRCGRHNLQRIQCRSENSKGVYCLQYDDEKIISGLRDNSIKIWDKTSLECLKVLTGHTGSVLCLQYDERVIVTGSSDSTVRVWDVNTGEVLNTLIHHNEAVLHLRFSNGLMVTCSKDRSIAVWDMASATDITLRRVLVGHRAAVNVVDFDDKYIVSASGDRTIKVWSTSTCEFVRTLNGHKRGIACLQYRDRLVVSGSSDNTIRLWDIECGACLRVLEGHEELVRCIRFDNKRIVSGAYDGKIKVWDLQAALDPRAPASTLCLRTLVEHSGRVFRLQFDEFQIISSSHDDTILIWDFLNVPPSAQNETRSPSRTYTYISR
partner: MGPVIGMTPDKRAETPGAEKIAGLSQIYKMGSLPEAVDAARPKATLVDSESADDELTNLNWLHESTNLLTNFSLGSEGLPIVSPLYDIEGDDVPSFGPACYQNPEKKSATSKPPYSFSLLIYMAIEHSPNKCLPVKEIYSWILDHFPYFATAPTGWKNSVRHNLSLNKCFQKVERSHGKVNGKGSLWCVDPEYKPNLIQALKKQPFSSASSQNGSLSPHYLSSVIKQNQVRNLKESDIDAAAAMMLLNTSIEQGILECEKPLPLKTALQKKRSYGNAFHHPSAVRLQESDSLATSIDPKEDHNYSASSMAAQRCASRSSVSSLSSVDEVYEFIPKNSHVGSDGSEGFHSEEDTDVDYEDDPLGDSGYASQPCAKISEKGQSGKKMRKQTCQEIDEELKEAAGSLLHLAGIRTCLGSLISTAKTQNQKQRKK

Variants of: B1
Settings: with foxn2_human FOXN2, P32314

Row | effect of a mutation on the interaction | Variant
1 | disrupting interaction | L474A

Reference: IntAct's records for PubMed 25609649
